Experimental data as given in paper PMC6698644 (Nucleic Acids Research, 2019).

Experiments:
LeuO-His6 (wild type) [1] = molecular target: T1, LeuO-His6 (wild type) (Escherichia coli K12, UniProt P10151 1-314); experiment: gel filtration
T1 sequence: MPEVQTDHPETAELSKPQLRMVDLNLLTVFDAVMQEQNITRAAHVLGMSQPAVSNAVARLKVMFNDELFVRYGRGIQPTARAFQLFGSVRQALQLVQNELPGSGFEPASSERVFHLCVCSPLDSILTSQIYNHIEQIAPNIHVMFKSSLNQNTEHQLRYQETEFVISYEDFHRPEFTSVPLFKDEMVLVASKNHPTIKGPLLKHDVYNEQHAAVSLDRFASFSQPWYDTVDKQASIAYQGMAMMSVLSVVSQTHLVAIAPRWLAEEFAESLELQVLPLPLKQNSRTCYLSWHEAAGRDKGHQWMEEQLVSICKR

LeuO-S120D-His6 [2] = molecular target: T2, LeuO-S120D-His6 (Escherichia coli K12, UniProt P10151 1-314, S120D); experiment: gel filtration
T2 sequence: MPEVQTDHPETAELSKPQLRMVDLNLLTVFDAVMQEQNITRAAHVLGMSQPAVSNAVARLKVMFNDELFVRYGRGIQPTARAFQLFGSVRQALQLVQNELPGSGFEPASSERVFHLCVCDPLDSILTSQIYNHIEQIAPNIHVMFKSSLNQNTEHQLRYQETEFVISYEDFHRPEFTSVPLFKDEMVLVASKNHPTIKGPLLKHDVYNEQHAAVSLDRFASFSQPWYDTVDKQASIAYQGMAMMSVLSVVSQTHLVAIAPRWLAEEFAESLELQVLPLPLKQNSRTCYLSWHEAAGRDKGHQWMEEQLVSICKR

SEC = molecular target: the molecule itself; experiment: SEC
LeuO-His6 (wild type) [3] = molecular target: T1, LeuO-His6 (wild type); experiment: SPR
LeuO-S120D-His6 [4] = molecular target: T2, LeuO-S120D-His6; experiment: SPR
crystal structure = molecular target: the molecule itself; experiment: crystal structure
LeuO-DBD-His6 = molecular target: T3, LeuO-DBD-His6 (Escherichia coli K12, UniProt P10151 1-101); experiment: SPR
T3 sequence: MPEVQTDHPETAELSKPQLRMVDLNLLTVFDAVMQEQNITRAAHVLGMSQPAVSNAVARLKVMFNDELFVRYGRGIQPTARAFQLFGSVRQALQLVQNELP

LeuO-S120D-His6 [5] = molecular target: T2, LeuO-S120D-His6; experiment: SPR; remark: listed apart in the source
LeuO-His6 (wild type) [6] = molecular target: T1, LeuO-His6 (wild type); experiment: SPR; remark: listed apart in the source

B1: gel filtration fragment, cas LeuO site II (60 bp) (dsDNA)
DNA 1: TTTATATTCACAGTATGAATATTTTATGTAATAAAATTCATGGTAATTATTATAACTAAA
DNA 2: TTTAGTTATAATAATTACCATGAATTTTATTACATAAAATATTCATACTGTGAATATAAA
LeuO-His6 (wild type) [1]
  binding result: binds
LeuO-S120D-His6 [2]
  binding result: binds

B2: LeuO, C-terminally histidine-tagged (LeuO_(His6)) (natural protein, Escherichia coli, UniProt P10151 1-314, looked up)
chain: MPEVQTDHPETAELSKPQLRMVDLNLLTVFDAVMQEQNITRAAHVLGMSQPAVSNAVARLKVMFNDELFVRYGRGIQPTARAFQLFGSVRQALQLVQNELPGSGFEPASSERVFHLCVCSPLDSILTSQIYNHIEQIAPNIHVMFKSSLNQNTEHQLRYQETEFVISYEDFHRPEFTSVPLFKDEMVLVASKNHPTIKGPLLKHDVYNEQHAAVSLDRFASFSQPWYDTVDKQASIAYQGMAMMSVLSVVSQTHLVAIAPRWLAEEFAESLELQVLPLPLKQNSRTCYLSWHEAAGRDKGHQWMEEQLVSICKR
SEC
  stoichiometry N: 4

B3: LeuO-S120D, C-terminally histidine-tagged (LeuO-S120D_(His6)) (natural protein, Escherichia coli, UniProt P10151 1-314, looked up)
chain: MPEVQTDHPETAELSKPQLRMVDLNLLTVFDAVMQEQNITRAAHVLGMSQPAVSNAVARLKVMFNDELFVRYGRGIQPTARAFQLFGSVRQALQLVQNELPGSGFEPASSERVFHLCVCDPLDSILTSQIYNHIEQIAPNIHVMFKSSLNQNTEHQLRYQETEFVISYEDFHRPEFTSVPLFKDEMVLVASKNHPTIKGPLLKHDVYNEQHAAVSLDRFASFSQPWYDTVDKQASIAYQGMAMMSVLSVVSQTHLVAIAPRWLAEEFAESLELQVLPLPLKQNSRTCYLSWHEAAGRDKGHQWMEEQLVSICKR
SEC
  stoichiometry N: 4

B4: SPR fragment B, cas core-site (25 bp) (dsDNA)
DNA 1: GGGGGTTTATATTCACAGTATGAATATTTTGGGGG
DNA 2: CCCCCAAAATATTCATACTGTGAATATAAACCCCC
LeuO-His6 (wild type) [3]
  Kd: 0.9 nM
LeuO-S120D-His6 [4]
  Kd: 0.6 nM

B5: LeuO-S120D effector-binding domain, C-terminally histidine-tagged (LeuO-S120D-EBD_(His6)) (domain or fragment, Escherichia coli)
chain: SSERVFHLCVCDPLDSILTSQIYNHIEQIAPNIHVMFKSSLNQNTEHQLRYQETEFVISYEDFHRPEFTSVPLFKDEMVLVASKNHPTIKGPLLKHDVYNEQHAAVSLDRFASFSQPWYDTVDKQASIAYQGMAMMSVLSVVSQTHLVAIAPRWLAEEFAESLELQVLPLPLKQNSRTCYLSWHEAAGRDKGHQWMEEQLVSICKR
Crystal structure
  binding result: binds

B6: SPR fragment A, cas LeuO site II (60 bp) (dsDNA)
DNA 1: GGGGGTTTATATTCACAGTATGAATATTTTATGTAATAAAATTCATGGTAATTATTATAACTAAAGGGGG
DNA 2: CCCCCTTTAGTTATAATAATTACCATGAATTTTATTACATAAAATATTCATACTGTGAATATAAACCCCC
LeuO-His6 (wild type) [3]
  Kd: 0.7 nM
LeuO-S120D-His6 [4]
  Kd: 0.2 nM

B7: SPR fragment C, scrambled (60 bp) (dsDNA)
DNA 1: GGGGGGTAAATTACATAATGCGATTAAAATTTATTTTCAAAAGTTTAATTTAACATTGAATTTATGGGGG
DNA 2: CCCCCATAAATTCAATGTTAAATTAAACTTTTGAAAATAAATTTTAATCGCATTATGTAATTTACCCCCC
LeuO-DBD-His6
  binding result: no binding
LeuO-S120D-His6 [5]
  binding result: no binding
LeuO-His6 (wild type) [6]
  binding result: no binding
